Like-named read-outs stand apart in the source and are kept apart here.

For series [1], the system named is T1, RappLS20-His(6) (Bacillus subtilis plasmid pLS20 (pLS20cat)), ORF:c1c32938.
T1 sequence: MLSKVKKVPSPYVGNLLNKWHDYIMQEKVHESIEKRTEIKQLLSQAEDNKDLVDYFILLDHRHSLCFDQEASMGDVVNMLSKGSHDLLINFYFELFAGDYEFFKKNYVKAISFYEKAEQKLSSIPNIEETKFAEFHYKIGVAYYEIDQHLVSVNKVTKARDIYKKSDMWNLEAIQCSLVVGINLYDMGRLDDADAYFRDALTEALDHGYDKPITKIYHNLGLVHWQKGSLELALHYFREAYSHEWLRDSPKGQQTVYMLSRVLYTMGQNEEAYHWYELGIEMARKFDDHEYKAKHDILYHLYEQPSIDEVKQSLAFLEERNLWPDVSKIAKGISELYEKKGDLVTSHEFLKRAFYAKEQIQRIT
Briefly: EMSA. (Mobility shift assays separate free from complexed probe on a gel.)

Series [2] concerns T2, RcopLS20-His(6) (Bacillus subtilis plasmid pLS20 (pLS20cat)), ORF:72252162.
T2 sequence: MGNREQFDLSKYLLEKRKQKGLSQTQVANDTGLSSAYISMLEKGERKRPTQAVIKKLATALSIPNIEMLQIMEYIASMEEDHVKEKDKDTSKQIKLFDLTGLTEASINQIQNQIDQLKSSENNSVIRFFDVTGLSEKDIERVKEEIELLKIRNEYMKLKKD
Briefly: EMSA.

Series [3] shares this test system. Nature of the series: analytical ultracentrifugation.
Series [4] concerns the target Rap_(pLS20)-His(6) (Bacillus subtilis plasmid pLS20). Nature of the series: AUC.
The target is the same in series [5]. Briefly: AUC. The source holds these as a separate data set.
The target is the same in series [6]. Briefly: AUC. This is another data set of the same source.
Series [7] addresses Rco_(pLS20)-His(6) (Bacillus subtilis plasmid pLS20). Briefly: AUC.

Regarding “CGCGGATCCTATACCACCTCGCAAAATAAACCCTGTATACGGTCTAGCGCTTACAATTTTTCGCGTTTTTTTTACTCAGTGAAAAAAACCGGTTAAAAATTTCACTGAAATACTTTACAGTTAAAAAAATGTCTGTTATCTTAGTGAAAGAGTCAGTGAAAAAAATGCAGAATAAGGTTTTTTGTTGTTAATCTCAAACAATTTCTGTGTAAAAAGAAC (double strand) [Fragment FIII (219 bp, operator OII)]”, the binding entry in series [1] is recorded as “no binding”; in series [2], “binds”; in series [3], “binds”. On to Phr*_(pLS20) (peptide), for which the Kd in series [4] turned out to be 2.1 µM. Same read-out and setting: for PhrF*-I5Y (peptide) the value was 4.2 µM; for PhrF*-R2K (peptide), 4.2 µM. For Rap_(pLS20)-His(6) (natural protein), the stoichiometry N in series [4] was found to be 4; in series [5], 2; in series [6], 4.

As to Rco_(pLS20)-His(6) (natural protein), the stoichiometry N in series [4] (scale: mol of Rco_(pLS20) per mol of Rap_(pLS20)) worked out at 2.1; in series [7] it was 4.

B1: PhrF* (peptide)
peptide: QRGMI
As for B1, in series [4], the Kd was determined as 5.3 µM.

Usually Kd stands for a measure of binding affinity in units of concentration. As a reminder, the stoichiometry N is the number of molecules, sites or subunits per partner or assembly.

The values above are taken from paper PMC7641744.
